Substrate: Nc1ncnc2c1ncn2[C@@H]1O[C@H](COP(=O)(O)OP(=O)(O)OP(=O)(O)O)[C@@H](O)[C@H]1O
Assay: coupled NADH fluorescence ATPase assay
Format: biochemical, Caulobacter vibrioides
Details: no ssDNA, FITC-casein present, 0.1 μM Lon6, Mg2+, pH 8.0, 30 °C
Excerpt: coupled NADH fluorescence ATPase assay on Lon

B1: Lon (Caulobacter vibrioides NA1000) (protein)
chain: MSELRTLPVLPLRDIVVFPHMVVPLFVGRDKSVRALEEVMRGDKQILLVTQKNSADDDPAPGDIFEVGVLATVLQLLKLPDGTVKVLVEGKARAAVVSFTDQESYYEAQIGEVSEDDGAGPEAEALSRAVVEQFENYVKLNKKVPPEALASIPQIAEPGKLADSIAAHLSVKIGDKQNLLEIFDVVKRLEKVFALMEGEISVLQVEKKIRSRVKRQMEKTQREYYLNEQMKAIQRELGDPDDARDELIDLEKRIKKTKLSKEARTKAESELKKLRNMSPMSAESTVVRNYLDWLLSIPWGKAKTKKIDLVESEGILDADHYGLEKVKERILEYLAVQARTNSLKGPILCLVGPPGVGKTSLGKSIAKATGREFVRMSLGGVRDEAEIRGHRRTYIGSMPGKVVQSMKKAKTTNAFVLLDEIDKMGSDYRGDPASALLEVLDPSQNSTFGDHYLEVDYDLSQVMFVTTANSLNMPQPLLDRMEIIRIPGYTEDEKLEIAKRHILPKLAKDHGLKPAEFIVPDKAIRDLIRYYTREAGVRSLERELGALARKTVRDLAREKVASITIDDERLAKYAGVKKYRYGETDEVDQVGIVTGLAWTEFGGDILTIEAVKMPGKGRMQITGNLKDVMKESIAAANSYVRSRALQFGIKPPVFEKTDVHIHVPDGATPKDGPSAGIAMALAMVSVLTGIPIRKDIAMTGEITLRGRVTAIGGLKEKLLAALRSGVKTVLIPQENEKDLADVPQTVKDGLEIIPVSTVDEVLKHALTGPLTPVEWNEAEEPITTSAKKDDGDSDAMLTH
notes: Caulobacter Lon from pBAD33-Lon, purified on hydroxyapatite and MonoQ, no tag mentioned
With B1 the Km (Hill fit n 1.2, brackets 95% CI) was 92[67–135] μM.

B2: Lon (Caulobacter vibrioides NA1000; K301E/K303E/K305E/K306E) (protein)
chain: MSELRTLPVLPLRDIVVFPHMVVPLFVGRDKSVRALEEVMRGDKQILLVTQKNSADDDPAPGDIFEVGVLATVLQLLKLPDGTVKVLVEGKARAAVVSFTDQESYYEAQIGEVSEDDGAGPEAEALSRAVVEQFENYVKLNKKVPPEALASIPQIAEPGKLADSIAAHLSVKIGDKQNLLEIFDVVKRLEKVFALMEGEISVLQVEKKIRSRVKRQMEKTQREYYLNEQMKAIQRELGDPDDARDELIDLEKRIKKTKLSKEARTKAESELKKLRNMSPMSAESTVVRNYLDWLLSIPWGEAETEEIDLVESEGILDADHYGLEKVKERILEYLAVQARTNSLKGPILCLVGPPGVGKTSLGKSIAKATGREFVRMSLGGVRDEAEIRGHRRTYIGSMPGKVVQSMKKAKTTNAFVLLDEIDKMGSDYRGDPASALLEVLDPSQNSTFGDHYLEVDYDLSQVMFVTTANSLNMPQPLLDRMEIIRIPGYTEDEKLEIAKRHILPKLAKDHGLKPAEFIVPDKAIRDLIRYYTREAGVRSLERELGALARKTVRDLAREKVASITIDDERLAKYAGVKKYRYGETDEVDQVGIVTGLAWTEFGGDILTIEAVKMPGKGRMQITGNLKDVMKESIAAANSYVRSRALQFGIKPPVFEKTDVHIHVPDGATPKDGPSAGIAMALAMVSVLTGIPIRKDIAMTGEITLRGRVTAIGGLKEKLLAALRSGVKTVLIPQENEKDLADVPQTVKDGLEIIPVSTVDEVLKHALTGPLTPVEWNEAEEPITTSAKKDDGDSDAMLTH
notes: as for B1
For B2, the Km (Lon4E, Hill fit n 1.6, brackets 95% CI) was 28[23–28] μM.

B3: Lon (Caulobacter vibrioides NA1000; K301A/K303A/K305A/K306A) (protein)
chain: MSELRTLPVLPLRDIVVFPHMVVPLFVGRDKSVRALEEVMRGDKQILLVTQKNSADDDPAPGDIFEVGVLATVLQLLKLPDGTVKVLVEGKARAAVVSFTDQESYYEAQIGEVSEDDGAGPEAEALSRAVVEQFENYVKLNKKVPPEALASIPQIAEPGKLADSIAAHLSVKIGDKQNLLEIFDVVKRLEKVFALMEGEISVLQVEKKIRSRVKRQMEKTQREYYLNEQMKAIQRELGDPDDARDELIDLEKRIKKTKLSKEARTKAESELKKLRNMSPMSAESTVVRNYLDWLLSIPWGAAATAAIDLVESEGILDADHYGLEKVKERILEYLAVQARTNSLKGPILCLVGPPGVGKTSLGKSIAKATGREFVRMSLGGVRDEAEIRGHRRTYIGSMPGKVVQSMKKAKTTNAFVLLDEIDKMGSDYRGDPASALLEVLDPSQNSTFGDHYLEVDYDLSQVMFVTTANSLNMPQPLLDRMEIIRIPGYTEDEKLEIAKRHILPKLAKDHGLKPAEFIVPDKAIRDLIRYYTREAGVRSLERELGALARKTVRDLAREKVASITIDDERLAKYAGVKKYRYGETDEVDQVGIVTGLAWTEFGGDILTIEAVKMPGKGRMQITGNLKDVMKESIAAANSYVRSRALQFGIKPPVFEKTDVHIHVPDGATPKDGPSAGIAMALAMVSVLTGIPIRKDIAMTGEITLRGRVTAIGGLKEKLLAALRSGVKTVLIPQENEKDLADVPQTVKDGLEIIPVSTVDEVLKHALTGPLTPVEWNEAEEPITTSAKKDDGDSDAMLTH
notes: as for B1
In the case of B3, the Km (Lon4A, Hill fit n 1.2, brackets 95% CI) is reported as 206[134–707] μM.

Reference: PMC11719849, “Allosteric modulation of the Lon protease via ssDNA binding and local charge changes” (The Journal of Biological Chemistry, 2024)
